Reference: patent publication US20220135701A1 (Genentech, published 2022)

T1: human MerTK on human macrophages (human, UniProt Q12866 21-999)
T1 sequence: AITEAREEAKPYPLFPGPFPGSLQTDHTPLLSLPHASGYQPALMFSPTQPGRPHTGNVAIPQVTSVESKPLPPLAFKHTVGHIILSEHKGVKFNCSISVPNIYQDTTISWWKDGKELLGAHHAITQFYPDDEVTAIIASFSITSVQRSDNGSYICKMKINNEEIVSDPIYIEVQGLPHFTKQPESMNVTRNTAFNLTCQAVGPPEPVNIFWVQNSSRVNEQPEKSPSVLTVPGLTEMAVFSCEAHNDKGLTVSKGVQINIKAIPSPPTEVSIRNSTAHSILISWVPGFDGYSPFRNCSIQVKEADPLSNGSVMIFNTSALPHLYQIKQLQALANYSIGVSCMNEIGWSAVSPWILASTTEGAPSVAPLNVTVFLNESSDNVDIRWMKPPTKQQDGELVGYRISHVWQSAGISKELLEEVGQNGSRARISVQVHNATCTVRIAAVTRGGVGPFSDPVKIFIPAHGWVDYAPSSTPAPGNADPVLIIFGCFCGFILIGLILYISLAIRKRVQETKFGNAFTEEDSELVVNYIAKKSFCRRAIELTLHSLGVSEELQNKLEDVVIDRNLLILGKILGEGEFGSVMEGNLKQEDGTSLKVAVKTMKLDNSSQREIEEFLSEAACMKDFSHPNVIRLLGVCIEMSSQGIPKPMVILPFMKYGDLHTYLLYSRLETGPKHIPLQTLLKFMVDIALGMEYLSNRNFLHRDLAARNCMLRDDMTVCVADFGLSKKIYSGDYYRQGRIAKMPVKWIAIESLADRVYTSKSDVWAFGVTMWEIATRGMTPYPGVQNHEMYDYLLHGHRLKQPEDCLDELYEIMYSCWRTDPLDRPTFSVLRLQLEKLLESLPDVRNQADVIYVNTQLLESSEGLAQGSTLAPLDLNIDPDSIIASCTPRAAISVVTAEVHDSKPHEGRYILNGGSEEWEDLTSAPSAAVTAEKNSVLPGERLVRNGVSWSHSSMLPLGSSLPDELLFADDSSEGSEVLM

T2: rat MerTK (rat, UniProt P57097 23-496, limits assumed)
T2 construct: Soluble analyte in SPR
T2 sequence (looked up): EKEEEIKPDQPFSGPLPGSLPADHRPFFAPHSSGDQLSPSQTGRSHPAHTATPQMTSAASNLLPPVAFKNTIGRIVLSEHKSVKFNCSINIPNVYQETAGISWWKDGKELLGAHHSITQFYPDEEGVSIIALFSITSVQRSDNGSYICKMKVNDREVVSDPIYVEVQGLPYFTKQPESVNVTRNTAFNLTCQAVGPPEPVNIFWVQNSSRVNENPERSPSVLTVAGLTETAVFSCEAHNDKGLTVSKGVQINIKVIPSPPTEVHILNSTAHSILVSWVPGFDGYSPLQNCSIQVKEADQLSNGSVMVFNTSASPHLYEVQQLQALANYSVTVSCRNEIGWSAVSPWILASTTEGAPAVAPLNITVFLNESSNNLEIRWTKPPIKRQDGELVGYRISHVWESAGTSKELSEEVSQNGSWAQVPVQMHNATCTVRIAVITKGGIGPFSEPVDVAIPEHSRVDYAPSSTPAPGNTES

T3: cynomolgus monkey MerTK (cynomolgus monkey, UniProt A0A2K5V1H9 32-505)
T3 construct: Soluble analyte in SPR; also called Cyno MerTK
T3 sequence: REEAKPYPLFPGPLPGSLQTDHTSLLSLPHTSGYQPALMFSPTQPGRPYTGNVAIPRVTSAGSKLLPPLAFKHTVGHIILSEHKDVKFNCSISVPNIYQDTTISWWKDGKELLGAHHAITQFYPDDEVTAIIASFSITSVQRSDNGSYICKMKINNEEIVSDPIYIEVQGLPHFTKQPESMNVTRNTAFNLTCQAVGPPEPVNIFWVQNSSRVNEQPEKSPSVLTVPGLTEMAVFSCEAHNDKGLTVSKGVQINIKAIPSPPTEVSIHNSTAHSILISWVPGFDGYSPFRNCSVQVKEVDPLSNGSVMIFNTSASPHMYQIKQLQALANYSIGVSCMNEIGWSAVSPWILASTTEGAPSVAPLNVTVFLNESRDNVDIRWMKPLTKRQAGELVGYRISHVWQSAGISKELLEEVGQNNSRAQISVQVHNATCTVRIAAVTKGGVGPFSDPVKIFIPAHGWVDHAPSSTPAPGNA

T4: mouse MerTK (mouse, UniProt Q60805 23-496)
T4 construct: also called MuMER
T4 sequence (looked up): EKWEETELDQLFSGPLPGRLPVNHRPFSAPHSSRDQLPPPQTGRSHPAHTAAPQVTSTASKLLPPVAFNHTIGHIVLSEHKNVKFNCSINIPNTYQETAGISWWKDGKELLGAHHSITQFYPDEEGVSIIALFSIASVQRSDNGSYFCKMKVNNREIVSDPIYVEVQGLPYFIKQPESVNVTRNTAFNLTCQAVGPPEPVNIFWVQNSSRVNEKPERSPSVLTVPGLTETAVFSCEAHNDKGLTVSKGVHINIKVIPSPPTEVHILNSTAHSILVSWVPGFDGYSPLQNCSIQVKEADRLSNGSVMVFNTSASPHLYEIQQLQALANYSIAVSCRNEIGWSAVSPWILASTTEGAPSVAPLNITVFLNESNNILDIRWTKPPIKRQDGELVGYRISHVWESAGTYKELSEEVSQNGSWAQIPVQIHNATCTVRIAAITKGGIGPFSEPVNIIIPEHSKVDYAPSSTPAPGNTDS

T5: human MerTK (human, UniProt Q12866 26-499)
T5 construct: also called HuMER
T5 sequence: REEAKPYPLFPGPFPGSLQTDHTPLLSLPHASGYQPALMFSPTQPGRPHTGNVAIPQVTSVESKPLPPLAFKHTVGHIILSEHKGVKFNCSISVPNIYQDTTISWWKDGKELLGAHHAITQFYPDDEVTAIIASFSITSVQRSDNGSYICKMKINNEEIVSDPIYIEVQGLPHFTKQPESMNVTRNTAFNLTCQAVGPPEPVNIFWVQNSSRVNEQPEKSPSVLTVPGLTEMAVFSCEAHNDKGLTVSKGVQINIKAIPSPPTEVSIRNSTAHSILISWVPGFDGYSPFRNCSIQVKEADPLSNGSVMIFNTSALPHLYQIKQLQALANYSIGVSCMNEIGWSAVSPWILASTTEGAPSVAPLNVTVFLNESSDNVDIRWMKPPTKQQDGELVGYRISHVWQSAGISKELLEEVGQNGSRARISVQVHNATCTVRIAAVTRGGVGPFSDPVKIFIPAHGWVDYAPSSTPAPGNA

T6: HuMER (R26-A499) (human, UniProt Q12866 26-499)
T6 construct: Extracellular domain with both Ig-like and both fibronectin-like domains; also called human MerTK extracellular domain
T6 sequence: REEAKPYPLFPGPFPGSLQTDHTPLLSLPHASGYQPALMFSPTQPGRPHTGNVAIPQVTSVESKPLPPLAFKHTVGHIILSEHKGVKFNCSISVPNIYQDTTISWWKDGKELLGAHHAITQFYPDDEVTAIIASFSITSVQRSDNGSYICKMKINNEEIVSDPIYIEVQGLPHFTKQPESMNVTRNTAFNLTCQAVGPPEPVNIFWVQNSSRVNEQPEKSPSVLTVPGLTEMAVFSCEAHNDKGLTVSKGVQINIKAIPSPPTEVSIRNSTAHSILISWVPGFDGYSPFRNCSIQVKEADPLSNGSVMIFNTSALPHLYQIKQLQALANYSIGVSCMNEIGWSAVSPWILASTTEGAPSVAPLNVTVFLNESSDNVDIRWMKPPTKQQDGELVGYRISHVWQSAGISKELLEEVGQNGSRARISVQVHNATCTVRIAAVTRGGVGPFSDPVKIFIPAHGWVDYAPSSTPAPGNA

T7: MuMER (E23-S496) (mouse, UniProt Q60805 23-496)
T7 construct: range 23-496; also called mouse MerTK extracellular domain
T7 sequence (looked up): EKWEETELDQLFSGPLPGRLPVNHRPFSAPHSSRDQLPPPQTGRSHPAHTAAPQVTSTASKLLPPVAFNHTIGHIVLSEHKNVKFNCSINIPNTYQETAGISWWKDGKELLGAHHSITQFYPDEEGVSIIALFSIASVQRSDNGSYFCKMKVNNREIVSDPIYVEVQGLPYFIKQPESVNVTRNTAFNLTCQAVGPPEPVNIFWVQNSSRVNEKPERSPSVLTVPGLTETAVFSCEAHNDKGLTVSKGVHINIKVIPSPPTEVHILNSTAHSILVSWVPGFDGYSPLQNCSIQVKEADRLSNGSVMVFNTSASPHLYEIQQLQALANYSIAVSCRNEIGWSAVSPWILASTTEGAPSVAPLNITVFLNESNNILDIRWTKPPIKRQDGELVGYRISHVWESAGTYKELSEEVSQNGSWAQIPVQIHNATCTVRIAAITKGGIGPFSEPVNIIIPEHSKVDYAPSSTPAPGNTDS


Tests used:
[1] = target: T1, human MerTK on human macrophages; experiment: cell-based or functional assay
rat MerTK = target: T2, rat MerTK; experiment: SPR BIAcore T200, Ab captured, 37C
Procedure: (§1) All binding affinity determinations were obtained using Surface Plasmon Resonance (SPR) measurements from a BIAcore™-T200 instrument. Briefly, each rabbit or humanized antibody was captured to achieve approximately 100 RU (Response Units). Then, 3-fold serial dilutions of MerTK from various species (0.4 nM to 100 nM) diluted in HBS-EP buffer (0.01M HEPES pH 7.4, 0.15M NaCl, 3 mM EDTA and 0.05% v/v surfactant P20) was injected into the BIAcore™-T200 instrument at 25° C. or 37° C. with a flow rate of 30 μl/min. Association rates (kₒₙ) and dissociation rates (koff) were calculated using a simple one-to-one Langmuir binding model (BIAcore T200 evaluation software version 2.0). The equilibrium dissociation constant (KD) was calculated as the ratio koff/kₒₙ.

cynomolgus monkey MerTK [2] = target: T3, cynomolgus monkey MerTK; experiment: SPR BIAcore T200, Ab captured, 37C
Procedure: as §1

mouse MerTK [3] = target: T4, mouse MerTK; experiment: SPR BIAcore T200, Ab captured, 37C
Procedure: as §1

human MerTK [4] = target: T5, human MerTK; experiment: SPR BIAcore T200, Ab captured, 37C
Procedure: as §1

cynomolgus monkey MerTK [5] = target: T3, cynomolgus monkey MerTK; experiment: SPR BIAcore T200, Ab captured, 25C
Procedure: as §1

mouse MerTK [6] = target: T4, mouse MerTK; experiment: SPR BIAcore T200, Ab captured, 25C
Procedure: as §1

human MerTK [7] = target: T5, human MerTK; experiment: SPR BIAcore T200, Ab captured, 25C
Procedure: as §1

HuMER (R26-A499) = target: T6, HuMER (R26-A499); experiment: SPR BIAcore T200, Ab captured, 25C
Procedure: (§2) Binding affinity determinations were obtained using Surface Plasmon Resonance (SRP) measurements from a BIAcore™-T200 instrument. Briefly, each rabbit antibody was captured to achieve approximately 100 RU (Response Units). Then, 3-fold serial dilutions of the various MerTK domains (0.4 nM to 100 nM) diluted in HBS-EP buffer (0.01M HEPES pH 7.4, 0.15M NaCl, 3 mM EDTA and 0.05% v/v surfactant P20) was injected into the BIAcore™-T200 instrument at 25° C. or 37° C. with a flow rate of 30 μl/min. Association rates (kₒₙ) and dissociation rates (koff) were calculated using a simple one-to-one Langmuir binding model (BIAcore T200 evaluation software version 2.0). The equilibrium dissociation constant (KD) was calculated as the ratio koff/kₒₙ.
(§3) Antibody epitope determination was assessed by BIAcore analysis for rabbit antibodies binding against both the human and mouse MerTK extracellular domain (HuMER R26-A499 and MuMER E23-S496), Ig1&2 domain, Ig1-only domain, and Ig2-only domain (TABLE 18). Human MerTK and its domains are shown in light gray, while mouse MerTK and its domains are shown in dark gray.

MuMER (E23-S496) = target: T7, MuMER (E23-S496); experiment: SPR BIAcore T200, Ab captured, 25C
Procedure: as §2, §3

IC50 (nM), efferocytosis by human macrophages, Average (3 Donors) [1] [nM]	IC50 (nM), efferocytosis by human macrophages, Donor A [1] [nM]	IC50 (nM), efferocytosis by human macrophages, Donor B [1] [nM]	IC50 (nM), efferocytosis by human macrophages, Donor C [1] [nM]	Max Inhibition (%), efferocytosis by human macrophages, Average (3 Donors) [1] [%]	Max Inhibition (%), efferocytosis by human macrophages, Donor A [1] [%]	Max Inhibition (%), efferocytosis by human macrophages, Donor B [1] [%]	Max Inhibition (%), efferocytosis by human macrophages, Donor C [1] [%]	Kd (rat MerTK) [nM]	Kd (cynomolgus monkey MerTK [2]) [nM]	Kd (mouse MerTK [3]) [nM]	Kd (human MerTK [4]) [nM]	Kd (cynomolgus monkey MerTK [5]) [nM]	Kd (mouse MerTK [6]) [nM]	Kd (human MerTK [7]) [nM]	Kd (HuMER (R26-A499)) [nM]	Kd (MuMER (E23-S496)) [nM]	Binder
0.95	0.52	1.2	1.2	61	64	58	62	2.4	3.2	0.9	6.9	–	–	–	–	–	h10C3.v14 (antibody, V domains shown, Humanized, human IgG1; also called 10C3 Humanized polished mAb) VH: EVQLVESGGGLVQPGGSLRLSCAASGFSLSGYTMGWVRQAPGKGLEYIGVISSGGTTYYTNWAKGRFTISKDNSKNTLYLQMGSLRAEDMAVYYCARVAFTAYGGGGFPTLHRLDLWGQGTLVTVSS VL: DQVLTQSPDSLAVSLGERATINCQSSESVYNNDYLAWYQQKPGQPPKLLIYSASTLASGVPDRFSGSGSGTDFTLTISSLQAEDVAVYYCAGGYLGNNVFGGGTKVEIK
–	–	–	–	–	–	–	–	5.8	5.1	2.4	10.9	4.7	4.1	7	7	4.1	Rbt10F7 (antibody, V domains shown, Recombinant rabbit monoclonal antibody, Expi293, protein A purified) VH: QSVEESGGRLVTPGTPLTLTCTVSGFSLSGYAMSWVRQAPGKGLEYIGVISSSGSSYYPSWAKGRFTISKTSTTVDLQITSPTTEDTATYFCARVQFYVGYAVYGYGIIDRLDLWGQGTLVTVSS VL: AAVLTQTPSPVSATMGGTVSISCQSSKSVYNNNWLSWYQQKPGQPPKLLIYRASTLESGVPSRFKGSGSGTQFTLTISDVHCDDAATYFCAGGYSSSSSANAFGGGTEVVVK
–	–	–	–	–	–	–	–	1.7	2.5	0.6	5.1	2.5	0.6	2.6	2.6	0.6	Rbt9E3.FN (antibody, V domains shown, Recombinant rabbit monoclonal antibody, Expi293, protein A purified) VH: QSVEESGGRLVTPGTPLTLTCTVSGFSLSSNAMSWVRQAPGKGLEWIGIISSSGSTYSASWAKGRFTISKTSTTMDLKITSPTTEDTATYFCARVGFFVGYGAYDYGIIHRLDLWGQGTLVTVSS VL: AAVLTQTPSPVSAAVGGTVSISCQSSKSIYNNNWLSWYQQKPGQPPKLLIYDASDLASGVPSRFEGSGSGTEFTLTISDLECDDAATYYCAGGYSGDSDYAFGGGTEVVVK
